Experimental findings from doi:10.1101/2023.10.12.561995 (bioRxiv, 2023) are described below.

This assay concerns the target S-protein of WT SARS-CoV-2 (S-trimer) used in BLI (SARS-CoV-2 wildtype, UniProt P0DTC2, stabilised). Kind of assay: BLI.

B1: R1-26 (mAb, human IgG1) (antibody, V domains shown)
VH: EVQLVESGGGLVQPGGSLRLSCAASGFTFSSYWMSWVRQAPGKGLEWVANIKQDGSEKYYVDSVKGRFTISRDNAKNSLYLQMNSLRAEDTAVYYCARGQLGPWVGVDYWGQGTLVTVSS
VL: NFMLTQPHSVSESPGKTVTISCTGSSGSIASNYVQWYQQRPGSAPTTVIYEDNQRPSGVPDRFSGSIDSSSNSASLTISGLKTEDEADYYCQSYDSSNWVFGGGTQLTVL
B1: the binding result is recorded as “binds”.
